Experimental data reported in the RNAGym collection of RNA variant scans (doi:10.7554/elife.80360).

B1: HDV Ribozyme (parent)
chain: GGCCGGCAUGGUCCCAGCCUCCUCGCUGGCGCCGGCUGGGCAACAUUCCGAGGGGACCGUCCCCUCGGUAAUGGCGAAUGGGACCCA

Variants of: B1
Experiment: self-cleavage, relative activity (ratio to wild type); higher = more cleavage; co-transcriptional

Row | Variant | self-cleavage
1 | G38A G53C | 0.0678
2 | G38A G53U | 0.0567
3 | U37A C48G | 0.148
4 | U37A C48U | 0.237
5 | U37C G55U | 1.13
6 | U37A A77U | 0.104
7 | U37A A77G | 0.415
8 | U37A A77C | 0.0426
9 | G38C C44G | 0.222
10 | U37A G68A | 0.381
11 | U37A G68C | 0.0405
12 | U37A C75A | 0.0707
13 | U37A C75G | 0.0852
14 | U37A C75U | 0.128
15 | U37A U65C | 0.225
16 | G38A G40A | 0.262
17 | G38A G40C | 0.138
18 | G38A G40U | 0.149
19 | U37C A45C | 0.539
20 | U37C A45G | 0.762
21 | G38C C57G | 0.356
22 | G38C A42U | 0.208
23 | G38C A42C | 0.104
24 | U37G G67C | 0.229

Row | Variant | self-cleavage
25 | U37G G67U | 0.18
26 | U37A G74A | 0.166
27 | U37A G81C | 0.227
28 | U37A G81U | 0.0875
29 | U37C C63A | 1.03
30 | U37C C63G | 0.965
31 | G38A U65A | 0.273
32 | G38C C66U | 0.153
33 | U37A G55C | 0.299
34 | U37A A87C | 0.17
35 | U37A A87G | 0.0989
36 | U37A A87U | 0.325
37 | U37A U46G | 0.128
38 | U37A U46C | 0.0852
39 | U37A U46A | 0.185
40 | U37A A56U | 0.332
41 | U37C A71G | 0.751
42 | U37C A71C | 0.917
43 | U37C A71U | 0.807
44 | U37G A71U | 0.0594
45 | U37G A71C | 0.0831
46 | U37G A71G | 0.0594
47 | G38C A45C | 0.0678
48 | G38C A45U | 0.213

Row | Variant | self-cleavage
49 | G38C A45G | 0.227
50 | G38A G80U | 0.156
51 | G38A G80A | 0.0372
52 | G38A A56G | 0.108
53 | G38C A56C | 0.181
54 | G38C A56G | 0.197
55 | G38C A56U | 0.262
56 | G38A U72A | 0.155
57 | G38A U72G | 0.0415
58 | G38C A51G | 0.309
59 | U37C C62A | 1.05
60 | U37C G54A | 1.11
61 | U37C G54U | 1.02
62 | U37C G54C | 1.13
63 | U37C C58U | 0.997
64 | U37C C58G | 0.872
65 | U37C C58A | 1.22
66 | U37C C85U | 1.01
67 | U37C C85G | 0.95
68 | U37C C85A | 1.16
69 | U37C G52U | 0.997
70 | U37C G52A | 1.25
71 | G38A G82U | 0.0405
72 | U37A G50C | 0.0489

Row | Variant | self-cleavage
73 | U37A G50U | 0.128
74 | U37C C64G | 0.604
75 | U37C C64U | 1.19
76 | U37C C61U | 0.884
77 | G38A C62A | 0.0733
78 | G38A A77C | 0.0354
79 | U37C G38U | 0.0773
80 | U37A G40U | 0.157
81 | U37A G40C | 0.0519
82 | U37G A70G | 0
83 | U37G A70U | 0.229
84 | U37G G74C | 0.0361
85 | U37G G68C | 0.246
86 | U37G G68A | 0.246
87 | U37G G68U | 0.128
88 | G38A A78G | 0.0755
89 | G38A A78C | 0.138
90 | G38A A78U | 0.0297
91 | U37G G38C | 0.192
92 | U37G G81A | 0
93 | G38A C86A | 0.247
94 | G38A C86U | 0.138
95 | U37A C62G | 0.151
96 | U37G G80C | 0.0449

Row | Variant | self-cleavage
97 | U37G G80A | 0.0308
98 | U37G G80U | 0.203
99 | G38A C85G | 0.157
100 | G38A C75G | 0.0302
101 | G38A C75U | 0.0443
102 | G38A C48U | 0.115
103 | G38A C48A | 0.121
104 | U37G U46A | 0
105 | U37G U46G | 0.332
106 | U37C U69A | 0.9
107 | U37C U69G | 1.19
108 | U37C C48A | 1.13
109 | U37C C48G | 1.04
110 | G38A G67C | 0.113
111 | G38C A77G | 0.0536
112 | U37G U69G | 0.0723
113 | U37G U69A | 0.119
114 | U37G U69C | 0.128
115 | G38A G81U | 0.176
116 | G38A G81C | 0.0712
117 | G38A C57G | 0.224
118 | G38A C57U | 0.211
119 | G38A C57A | 0.128
120 | U37G C41G | 0.332

Row | Variant | self-cleavage
121 | U37G C41A | 0
122 | U37G C41U | 0.156
123 | U37A C85U | 0.259
124 | U37A C85G | 0.0346
125 | U37A C58A | 0.225
126 | U37A C58U | 0.405
127 | G38C A43G | 0.219
128 | G38C A43U | 0.116
129 | U37C G81A | 0.283
130 | U37C G81C | 0.138
131 | U37C G81U | 0.211
132 | G38C C75A | 0
133 | G38C C75G | 0.104
134 | U37G C62U | 0.308
135 | U37G U79C | 0
136 | U37G U79G | 0.115
137 | U37C C75A | 0.177
138 | U37C C75U | 0.0997
139 | U37C C75G | 0.0627
140 | U37A C49U | 0.155
141 | U37A C49G | 0.201
142 | U37C G59U | 1.25
143 | U37C G59C | 1.16
144 | U37C U60C | 0.864

Row | Variant | self-cleavage
145 | U37C U60A | 1.27
146 | G38A A42G | 0.095
147 | G38A A42C | 0.148
148 | G38A A42U | 0
149 | U37G C84A | 0.161
150 | U37A G38U | 0.151
151 | U37A G38A | 0.086
152 | U37G A87C | 0.0764
153 | U37G A87U | 0.148
154 | U37G A87G | 0.0455
155 | U37A C64U | 0.185
156 | U37A C64G | 0.354
157 | U37C A77C | 0.415
158 | U37C A77U | 0.388
159 | U37C A77G | 1.03
160 | U37G A42G | 0.0723
161 | U37C U79G | 0.465
162 | U37C U79A | 0.554
163 | U37C G68C | 0.682
164 | U37C G68U | 1.05
165 | U37G A78C | 0.196
166 | U37G A78U | 0
167 | U37G G53U | 0.157
